This series concerns the molecule itself. In words: SEC; SEC profiles of Supplementary Fig. S4; before biophysical measurements proteins were run on Superdex 75 10/300 GL in 20 mM phosphate buffer pH 7.5.

B1: EcAIII variant RDM1-64, unprocessed immature precursor (enzyme, Escherichia coli, UniProt P37595 1-321, looked up)
chain: MGKAVIAIHGGAGAISRAQMSLQQELRYIEALSAIVETGQKMLEAGESALDVVTEAVRLLEECPLFNAGIGAVFTRDETHELDACVMDGNTLKAGAVAGVSHLRNPVLAARLVMEQSPHVMMIGEGAENFAFARGMERVSPEIFSTSLRYEQLLAARKEGATVLDHSGAPLDEKQKMGTVGAVALDLDGNLAAATSTGGMTNKLPIVVGIGPLVGAGCYANNASVAVSCTGTGEVFIRALAAYDIAALMDYGGLSLAEACERVVMEKLPALGGSGGLIAIDHEGNVALPFNTEGMYRAWGYAGDTPTTGIYREKGDTVATQ
notes: EcAIII of Escherichia coli, uncleaved immature precursor (α and β on one chain, linker intact), with the substitutions of RDM1-64; No ability to process into α/β subunits; EcAIII gene in pET-11d; source: E. coli BL21 Gold, purified (DEAE-Sepharose, SEC)
Regarding B1, the binding result is “binds”.

The values are drawn from paper PMC9248843, “Structural and biophysical studies of new L-asparaginase variants: lessons from random mutagenesis of the prototypic Escherichia coli Ntn-amidohydrolase” (Acta Crystallographica. Section D, Structural Biology, 2022).
